Bridges are numbered along the chain shown (N, C = ends). Primed or numbered codes have the meaning given here. Where no end group is shown, it is not given here. [ ]: non-standard residue; d: D form. The star is where a group is joined. Biotin = O=C1N[C@H]2[C@H](CS[C@H]2CCCCC(=O)*)N1; Benzoyl(3-SO2F) = O=C(c1cccc(S(=O)(=O)F)c1)*; Lys(N3) = [N-]=[N+]=NCCCC[C@H](N)C(=O)O; azido = azide group (monovalent —N3); DBCO′ = not defined here; PEG4′ = not defined here
Legend:
CD64 [1] = target: T1, CD64 (Homo sapiens, UniProt P12314); experiment: Koff (s^-1)
Protocol: (§1) Table printed on a drawing sheet, FIG. 8A
Head of the field: Koff (s^-1)
(§2) The patent's description of the figure: FIG. 8A-8B depicts results for the CP-33(N-term “Y” insertion mutant). […] (Note: the linker-biotin is attached to the azide; DBCO-Biotin not shown).
(§3) First copying reader's note: The name cp33-nt-tyr is printed with the structure in FIG. 8B on the same sheet; per the description, the BLI kinetics were measured with its linker-biotin conjugate binding to human CD64.
Target sequence in this assay (P12314 16-374 limits assumed): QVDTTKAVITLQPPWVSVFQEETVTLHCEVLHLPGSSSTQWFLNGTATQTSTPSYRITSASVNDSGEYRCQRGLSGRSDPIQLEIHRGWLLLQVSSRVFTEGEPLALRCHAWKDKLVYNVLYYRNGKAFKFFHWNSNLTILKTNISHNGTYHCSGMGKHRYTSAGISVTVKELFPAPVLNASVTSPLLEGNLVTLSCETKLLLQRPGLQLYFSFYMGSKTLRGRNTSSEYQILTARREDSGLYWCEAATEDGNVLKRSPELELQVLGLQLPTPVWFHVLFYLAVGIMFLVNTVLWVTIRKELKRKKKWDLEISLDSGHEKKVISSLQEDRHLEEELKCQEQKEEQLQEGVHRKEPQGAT

CD64 [2] = target: T1, CD64; experiment: Kon (M^-1 s^-1)
Protocol: as §1
Target sequence in this assay (P12314 16-374 limits assumed): as above
Head of the field: Kon (M^-1 s^-1)
as §2, §3

[3] = LC-MS stability in aqueous conditions at room temperature; conditions: over 27 hours
Protocol: The stability of the three sulfonyl fluoride variants in aqueous conditions at room temperature were then assessed using LC-MS. LC-MS measurements were taken over 27 hours and peaks on the UV chromatogram were monitored for CIR degradation (FIG. 19-21).

CD64 [4] = target: T1, CD64; experiment: fluorescent SDS-PAGE covalent labelling kinetics of CD64; assay type: binding; conditions: 1.6 μM CIR, 800 nM CD64, one-phase association fit
Protocol: Dark bands show A647 fluorescence as measured using the Cy5 channel and represent covalent CIR binding. 1.6 μM of CIR was incubated with 800 nM CD64 for different amounts of time before being run on a SDS-PAGE gel.
The fluorescence intensity of each band in FIG. 17A-17C was measured and then compared to the fluorescence intensity of the band at 100% fraction labelled (where the fluorescence intensity reaches a plateau) to make a fraction bound vs time graph. The curve of the graph was fitted to a one-phase association curve in GraphPad Prism 8 to find the Kobs.
The kinetics of the labelling reaction was also investigated using fluorescent SDS-PAGE gels similar to as described above. 1.6 μM of CIR was incubated with 800 nM CD64 for different amounts of time before being run on a SDS-PAGE gel (FIG. 17). The fluorescence intensity of each band was then measured and then compared to the fluorescence intensity of the band at 100% fraction labelled (where the fluorescence intensity reaches a plateau) to make a fraction bound vs time graph (FIG. 18). The curve of the graph was fitted to a one-phase association curve to find the Kobs.
Target sequence in this assay (P12314 16-374): as the sequence (P12314 16-374 limits assumed) above

CD64 on live U937 cells = target: T2, CD64 on live U937 cells (Homo sapiens, UniProt P12314); experiment: CIR-biotin labeling of CD64 on live U937 cells detected with streptavidin-PE; assay type: cell-based; conditions: 24 hours at 37° C. with IFNγ
T2 construct: endogenous in cells
Protocol: CIR-biotin was incubated with U937 cells for 24 hours at 37° C. along with IFNγ. The cells were then washed and incubated with streptavidin-PE. The streptavidin binds tightly to the biotin on the CIR and the fluorescent PE signal was read. cP33-ct-aryl SuFEx (CT), cP33-int-aryl SuFEx (INT), cP33-nt-aryl SuFEx (NT), and a noncovalent analog were incubated at increasing concentrations.
The ability of the three sulfonyl fluoride CIR variants to label CD64 on the surface of live cells was assayed using CIRs clicked to a biotin handle. CIR-biotin was incubated with U937 cells for 24 hours at 37° C. along with IFNγ. Post reaction, the cells were washed and incubated with streptavidin-PE. The streptavidin binds tightly to the biotin on the CIR and the fluorescent PE signal was read using a BD LSRII flow cytometer (FIG. 24). 100X CIR not labelled with biotin was used as competitor control to assess specificity and covalency (FIG. 25).

CD64 [5] = target: T1, CD64; experiment: fluorescent SDS-PAGE covalent labelling specificity of sulfonyl fluoride CIRs (CD64, CD16, BSA); assay type: binding; conditions: 1.6 μM CIR-A647, 800 nM protein, 7 hours, room temperature
Protocol: Dark bands show A647 fluorescence as measured using the Cy5 channel and represent covalent CIR binding. For each sample, 1.6 μM CIR clicked to A647 fluorescent dye was incubated with 800 nM of protein for 7 hours.
The specificity of the three sulfonyl fluoride CIR variations for labelling CD64 were investigated using a fluorescent SDS-PAGE assay similar to as described above (FIG. 16). 1.6 μM CIR clicked to A647 fluorescent dye was incubated with 800 nM of protein for 7 hours at room temperature in the dark. Three different proteins were assayed to test specificity: CD64, CD16, and BSA. The samples were then run on a 4-20% gradient acrylamide gel and fluorescence was measured using the Cy5 channel with an Amersham Typhoon biomolecular imager. Only covalently labelled CIR will remain bound to CD64 in SDS-PAGE giving rise to fluorescent bands.
Target sequence in this assay (P12314 16-374): as the sequence (P12314 16-374 limits assumed) above

human CD64 (recombinant) [6] = target: T3, human CD64 (recombinant) (human, UniProt P12314 16-288); experiment: BLI; 200 nM CD64
T3 chain: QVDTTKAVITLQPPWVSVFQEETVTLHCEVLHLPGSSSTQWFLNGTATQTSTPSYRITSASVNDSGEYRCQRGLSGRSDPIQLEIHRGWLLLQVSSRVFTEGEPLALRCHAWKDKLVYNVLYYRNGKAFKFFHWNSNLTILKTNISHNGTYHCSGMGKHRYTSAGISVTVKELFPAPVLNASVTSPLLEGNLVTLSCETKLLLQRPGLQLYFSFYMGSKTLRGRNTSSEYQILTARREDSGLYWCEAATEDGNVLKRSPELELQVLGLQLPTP

human CD64 (recombinant) [7] = target: T3, human CD64 (recombinant); experiment: BLI; 100 nM CD64
human CD64 (recombinant) [8] = target: T3, human CD64 (recombinant); experiment: BLI; 50 nM CD64
human CD64 (recombinant) [9] = target: T3, human CD64 (recombinant); experiment: BLI; 50 nM CD64
human CD64 (recombinant) [10] = target: T3, human CD64 (recombinant); experiment: BLI; 12.5 nM CD64
human CD64 (recombinant) [11] = target: T3, human CD64 (recombinant); experiment: BLI; 25 nM CD64
human CD64 (recombinant) [12] = target: T3, human CD64 (recombinant); experiment: BLI; 100 nM CD64
human CD64 (recombinant) [13] = target: T3, human CD64 (recombinant); experiment: BLI
human CD64 (recombinant) [14] = target: T4, human CD64 (recombinant) (human, UniProt P12314 16-288, limits assumed); experiment: fluorescence SDS-PAGE covalent labelling kinetics, 1.6 µM CIR with 800 nM CD64, one-phase association fit
T4 construct: Recombinant protein in solution, or biotinylated on streptavidin biosensors; Some passages print only 'CD64'; also called huCD64; biotinylated huCD64

T2 sequence (P12314 16-374): as the sequence (P12314 16-374 limits assumed) above

`CC(=O)N[C@@H](CCCCN=[N+]=[N-])C(=O)NCC(=O)N[C@@H](Cc1ccc(O)cc1)C(=O)N[C@H](C(=O)N[C@@H](CC(N)=O)C(=O)N[C@@H](CO)C(=O)N[C@H]1CSSC[C@@H](C(=O)NCC(=O)N[C@@H](CC(=O)O)C(=O)N[C@@H](CC(=O)O)C(N)=O)NC(=O)CNC(=O)[C@H](CC(C)C)NC(=O)[C@H](CC(C)C)NC(=O)[C@H](CC(N)=O)NC(=O)[C@@H]2CCCN2C(=O)[C@H](CC(C)C)NC(=O)[C@H](CC(C)C)NC(=O)[C@H](CC(C)C)NC1=O)C(C)C` [cp33-nt-tyr] gave a koff (CD64 [1]) of 0.00711 s⁻¹ and a kon (CD64 [2]) of 332000 M⁻¹ s⁻¹.

For “cP33 int-aryl SuFEx: cP33 peptide with the sulfonyl fluoride at an internal position replacing leucine; SEQ ID NO: 14 ([Lys(N3)]VNSCLLLPNK(Benzoyl(3-SO2F))LGCDGD; disulfide 5-14; not fully specified)”, the “stability in aqueous conditions (degradation peaks in UV trace)” value [3] was “noticeable degradation peaks by 27 hours” and the Kobs (CD64 [4]) was 9.2e-05 s⁻¹.

For “cP33 ct-aryl SuFEx: cP33 peptide with the sulfonyl fluoride group at the C-terminus; SEQ ID NO: 12 ([Lys(N3)]VNSCLLLPNLLGCDGDK(Benzoyl(3-SO2F)); disulfide 5-14; not fully specified)”, the “covalent labelling of CD64 on live cells (streptavidin-PE signal)” value (CD64 on live U937 cells) was “specific and effective covalent labelling of CD64 on the surface of live cells”, the “covalent labelling preference for CD64 vs CD16 and BSA” value (CD64 [5]) was “greater binding selectivity compared to the other variants” and the “stability in aqueous conditions (degradation peaks in UV trace)” value [3] was “some slight degradation peaks by 27 hours”. It also gave a Kobs (CD64 [4]) of 6.7e-05 s⁻¹.

B1: CP-33(N-term "Y" insertion mutant)-linker-biotin conjugate (peptide)
peptide: XGYVNSCLLLPNLLGCGDD
modifications: not fully specified; X1 is K, Ac-K(azido), or absent (azide clicked to DBCO-peg4-biotin); disulfide bond between C7 and C16; C-terminal amidation present or absent
B1 showed a Kd (human CD64 (recombinant) [6]) of 20.8 nM, a Kd (human CD64 (recombinant) [7]) of 18.2 nM and a Kd (human CD64 (recombinant) [8]) of 17.9 nM.

B2: CP-33(C-term "Y" insertion mutant)-linker-biotin conjugate (peptide)
peptide: XVNSCLLLPNLLGCGDDY
modifications: not fully specified; X1 is K, Ac-K(azido), or absent (azide clicked to DBCO-peg4-biotin); disulfide bond between C5 and C14; C-terminal amidation present or absent
With B2 the Kd (human CD64 (recombinant) [9]) was 3 nM, the Kd (human CD64 (recombinant) [10]) was 2 nM and the Kd (human CD64 (recombinant) [11]) was 2.6 nM. For the same molecule, the Kd (human CD64 (recombinant) [12]) was 4 nM.

With {Biotin-PEG4′-DBCO′-azido}-VNSCLLLPNLLGCGDD (disulfide 4-13; not fully specified) [native CP-33-linker-biotin conjugate] the Kd (human CD64 (recombinant) [13]) was 56 nM.

For [Lys(N3)]VNSCLLLPNK(Benzoyl(3-SO2F))LGCDGD (disulfide 5-14; also: X1 azide clicked to DBCO-A647 or DBCO-biotin) [cP33-int-aryl SuFEx], the Kobs (human CD64 (recombinant) [14]) was 9.2e-05 s⁻¹.

In the case of [Lys(N3)]VNSCLLLPNLLGCDGDK(Benzoyl(3-SO2F)) (disulfide 5-14; also: X1 azide clicked to DBCO-A647 or DBCO-biotin) [cP33-ct-aryl SuFEx], the Kobs (human CD64 (recombinant) [14]) is reported as 6.7e-05 s⁻¹.
